This note sets out measurements from patent publication US20060026702A1, “Phosphoinositide 3-kinase mediated inhibition of GPCRs” (DUKE UNIVERSITY, priority 2002, published 2006).

One assay concerns the target T1, βARK1 (Bos taurus, UniProt P21146).
T1 construct: gift from Dr. Robert Lefkowitz
T1 sequence (P21146 1-689): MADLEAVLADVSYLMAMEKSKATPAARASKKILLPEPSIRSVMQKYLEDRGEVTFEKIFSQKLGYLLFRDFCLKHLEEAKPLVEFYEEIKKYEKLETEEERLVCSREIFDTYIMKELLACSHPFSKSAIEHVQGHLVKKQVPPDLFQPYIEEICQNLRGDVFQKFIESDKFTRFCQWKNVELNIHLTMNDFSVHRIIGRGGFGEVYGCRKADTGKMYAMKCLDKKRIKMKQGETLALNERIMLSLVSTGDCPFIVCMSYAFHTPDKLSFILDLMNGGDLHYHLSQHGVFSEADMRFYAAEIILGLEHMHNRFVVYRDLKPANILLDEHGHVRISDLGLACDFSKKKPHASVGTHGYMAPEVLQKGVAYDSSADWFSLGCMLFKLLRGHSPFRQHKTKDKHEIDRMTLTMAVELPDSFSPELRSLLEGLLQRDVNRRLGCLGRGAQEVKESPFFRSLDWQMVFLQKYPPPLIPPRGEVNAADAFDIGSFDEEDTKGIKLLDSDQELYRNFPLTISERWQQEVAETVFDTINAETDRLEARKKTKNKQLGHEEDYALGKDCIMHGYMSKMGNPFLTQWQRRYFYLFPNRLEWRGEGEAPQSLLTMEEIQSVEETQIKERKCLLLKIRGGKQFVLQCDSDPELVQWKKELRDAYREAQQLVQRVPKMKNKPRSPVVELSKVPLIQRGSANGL
The assay is described as follows: Co-immunoprecipitation and GST pull-down with purified βARK1. The assay is classed as binding. Particulars: immunoprecipitated FLAG-HEAT or PI3KΔHEAT-HA. Here is the method: GST Fusion Protein Expression and Pull-down Experiments—Plasmid DNAs were transformed in Escherichia coli BL21 cells. Overnight cultures were grown in LB medium supplemented with ampicillin (100 μg/ml), diluted to an A600 of 0.2 in the same medium and grown for another 1 hr at 37° C. Cultured cells were then induced with 0.1 mM isopropyl-1-thio-β-D-galactopyranoside for 2 hr. Cell were then pelleted, washed once with 1× phosphate-buffered saline and resuspended in 1× phosphate-buffered saline containing 1 mM phenylmethylsulfonyl fluoride, 2 mg/ml lysozyme and incubated for 15 min on ice. Cells were lysed by adding Triton X-100 1%. Solublized cells were incubated with DNase (300 units) for 15 min on ice and centrifuged at 13,000 rpm for 10 min.
Glutathione-Sepharose beads were added to the supernatant and gently agitated at 4° C. for 2 hr. Beads were washed three times with ice cold 1×PBS containing 1% Triton X-100 followed by three washes with cold PBS without detergent. Protein concentration was determined using a DC protein assay kit (Bio Rad), and the integrity of the fusion protein was analyzed by SDS-polyacrylamide gel electrophoresis and Coomassie staining.
The beads were spun and washed three times with binding buffer followed by three washes with binding buffer without detergent. The beads were resuspended in SDS gel loading buffer and resolved by gel electrophoresis, immunblotting and detection was carried out described later.
FLAG-HEAT and PI3KΔHEAT proteins were immunoprecipitated from cell extracts using monoclonal FLAG and HA antibodies respectively, fractionated by SDS-PAGE and analyzed by immunoblotting with βARK1 monoclonal antibody. […] Levels of expression of HEAT and PI3KΔHEAT proteins were similar (FIG. 8B, lower panel).
To investigate whether there was a direct physical interaction between the HEAT domain of PI3K and βARK1, GST-HEAT fusion protein containing 535-732 amino acid residues of PI3Kγ was produced, which including the entire HEAT domain and flanking upstream 10 amino acids and downstream 7 amino acids. […]

For a further assay, the target named is T2, β2AR-YFP (Homo sapiens, UniProt P07550).
T2 construct: expressed in transfected cells; host or cells: HEK 293
The assay is described as follows: Endocytosis of β2AR-YFP in live cells by confocal microscopy. The assay is classed as cell-based. Particulars: 10 μM isoproterenol, 10 min; HEAT co-expressed. The method, then: Confocal Microscopy—Confocal microscopy was performed as previously described. […] Cells were split into 35 mm^2 dishes with glass bottoms for observation using a Zeiss LSM-510 confocal microscope. […] For analyses of the HEAT domain, HEK 293 cells were transfected with the plasmids containing cDNAs encoding either the β2AR-YFP (2 μg) or β2AR-YFP (2 μg) and HEAT domain (4 μg). Cells were plated onto glass bottom dishes for observation in the confocal microscope. […] Cells were permeablized with 0.1% Triton X-100 in phosphate-buffered saline for 20 min, incubated in 1% BSA in phosphate-buffered saline for 1 hr. Cells were washed with 1× phosphate-buffered saline and incubated with anti-HA or anti-FLAG monoclonal antibody (1:250) with 1% BSA in 1× phosphate-buffered saline for 1 hr. Cells were washed and incubated with goat anti-mouse IgG conjugated with Texas Red (1:500) (Molecular Probes) for 1 hr. Samples were visualized using single sequential line excitation filters at 488 and 568 nm and emission filter sets at 505-550 nm for GFP detection and 585 for Texas Red detection.
Prior to agonist, the distribution of β2AR-YFP was found distinctly at the plasma membrane (FIG. 11B, panel 1). […] With time, this was followed by the formation of cytoplasmic aggregates (FIG. 11B, panel 3), and then with the complete loss of membrane fluorescence (FIG. 11B, panels 3 and 7) (arrowheads).

A further assay concerns the target T3, V2R-GFP (Homo sapiens, UniProt P30518).
T3 construct: expressed in transfected cells; host or cells: HEK 293
The assay is described as follows: Endocytosis of V2R-GFP in live cells by confocal microscopy. The assay is classed as cell-based. As to conditions: AVP 10 μM; HEAT co-expressed. Here is the method:
Disruption of the endogenous βARK1/PI3K interaction by the HEAT protein attenuated V2R endocytosis. Endocytosis of V2R-GFP in live cells was monitored for 20 min following AVP (10 μM) stimulation in the absence or presence of HEAT protein co-expression using confocal microscopy. HEK 293 cells were transfected with either GFP-V2R (2 μg)/pRK5 (2 μg) or GFP-V2R (2 μg)/HEAT (2 μg). V2R internalization was followed in the same cell after agonist stimulation. Prior to agonist, the distribution of V2R-GFP was found distinctly at the plasma membrane (FIG. 14, 0 min). Following agonist treatment, there was redistribution of the V2R-GFP into membrane puncta consistent with entry into clathrin coated pits. With time, this was followed by the formation of cytoplasmic aggregates, and then with the complete loss of membrane fluorescence (FIG. 14, 6-24 min). […] In FIG. 14, panels on the left represent cells transfected with the V2R-GFP alone (panels show the same cell monitored at 0, 6, 12, 18, and 24 min following stimulation). Panels on the right represent cell transfected with V2R-GFP and HEAT (panels show the same cell monitored as above). In the absence of HEAT, agonist caused the internalization V2R5 as shown by the formation of distinct cytoplasmic aggregates and complete loss of membrane fluorescence.

B1: HEAT: 197 amino acid HEAT domain of PI3Kγ, FLAG epitope-tagged (SEQ ID NO: 2), overexpressed in cells (protein, listed as Homo sapiens)
chain: MDYKDDDDKHPIALPKHQPTPDDRVRAEMPNQLRKQLEAIIATDTAEDKELLWHFRYESLKHPKAYPKLFSSVKWGQQEIVAKTYQLLARREVWDQSALDVGLTMQLLDCNFSDENVRAIAVQKLESLEDDDVLHYLLQLVQAVKFEPYHDSALARFLLKRGLRNKRIGHFLFWFLRSEIAQSRHYQQRFAVILEAYLRGCGTA
modifications: FLAG tag
Regarding B1, in the assay with βARK1, the “association with purified βARK1 (immune complexes from HEK 293 extracts)” value is on record as “found to associate”. For the same molecule, in the assay with β2AR-YFP, the “receptor endocytosis (redistribution of β2AR-YFP)” value is on record as “completely inhibited”. The “receptor endocytosis (redistribution of V2R-GFP)” value with V2R-GFP was “completely inhibited”.
